Results published in patent publication US12303551B2, “Cellular immunotherapy compositions and uses thereof” (CERO THERPEUTICS HOLDINGS, INC., priority 2018, dated 2025).

Test system: SCC152 cells
Assay: Elimination of GFP-expressing SCC152 target cells over time (quantification and time lapse imaging)
Format: cell-based
Details: 96-well co-culture, CD8+/E7 TCR + CD4+/CER + SCC152 1:1:1, compared to control
Method: Target SCC152 cells were co-cultured with CD8+ T cells transduced with HPV E7 TCR+CD4+ T cells transduced with a selected CER, or controls (CD8+ T cell transduced with HPV E7 TCR+CD4+ transduced control) at a 1:1:1 ratio. The number of target cells were quantified using imaging software. 0 hours, 24 hours, and 48 hours are shown from left to right.
(§1) FIG. 21 is time lapse imaging from 96-well co-culture experiments comprising CD8+ T cells transduced with HPV16 E7 TCR+CD4+ T cells transduced with CER5, CER17 or CER19 incubated with SCC152 target cells at a 1:1:1 ratio. SCC152 HPV+ target cells were quantified using automated cell counting software.
as §1, with “22” for “21”, “CER21, CER23” for “CER5, CER17”, “CER26” for “CER19”
as §1, with “23” for “21”, “CER103b, CER104” for “CER5, CER17”, “CER105” for “CER19”
as §1, with “24” for “21”, “CER106, CER116” for “CER5, CER17”, “CER27” for “CER19”
FIG. 57 is a bar graph showing quantification of loss of SCC152 HPV16+ target cells over time during co-culture assays. SCC152 cells were transduced with green fluorescent protein (GFP) and co-cultured with CD8+ T cells transduced with HPV16 E7 TCR and CD4+ T cells transduced with a selected CER (CER29, CER30, CER110, CER112, CER113, CER114, CER116, or CER117) or a CD4+ T cell control at a 1:1:1 ratio (CD8:CD4:target cell). The number of target cells was quantified at various time points during co-culture (0 hrs, 12 hrs, 24 hrs, and 36 hrs) using fluorescence microscopy and imaging software.
(§2) FIG. 58 are fluorescence micrograph images of the co-culture assay described in FIG. 57, showing clearance of the SCC152 cells (pink) as co-culture with CD8+ T cells transduced with HPV16 E7 TCR and CD4+ T cells transduced with a selected CER (columns from left to right: control, CER29, CER30, CER110, or CER112) progresses (rows from top to bottom: 0 hrs, 12 hrs, 24 hrs, and 36 hrs).
as §2, with “59” for “58”, “CER113, CER114, CER116,” for “CER29, CER30, CER110,”, “CER117)” for “CER112)”
(§3) Elimination of target SCC152 cells was also detected by quantifying green fluorescent protein expression by SCC152 cells over time (0 hr, 24 hr, 48 hr) during co-incubation with CD8+ T cells transduced with HPV16 E7 specific TCR+ CD4 T cells transduced with selected CER (see, FIG. 20).
as §3, with “hr, 12 hr,” for “hr,”, “hr, 36” for “hr, 48”, “TCR+ CD4+” for “TCR+ CD4”, “CER (CER29, CER30, CER110, CER112, CER113, CER114, CER116, or CER117)” for “CER”, “FIG. 57).” for “FIG. 20).”

B1: CER5: Chimeric engulfment receptor: Tim4 binding, Tim4 transmembrane, TLR4 signaling; SEQ ID NO: 94 (protein)
chain: MSKGLLLLWLVTELWWLYLTPAASEDTIIGFLGQPVTLPCHYLSWSQSRNSMCWGKGSCPNSKCNAELLRTDGTRIISRKSTKYTLLGKVQFGEVSLTISNTNRGDSGVYCCRIEVPGWFNDVKKNVRLELRRATTTKKPTTTTRPTTTPYVTTTTPELLPTTVMTTSVLPTTTPPQTLATTAFSTAVTTCPSTTPGSFSQETTKGSAFTTESETLPASNHSQRSMMTISTDIAVLRPTGSNPGILPSTSQLTTQKTTLTTSESLQKTTKSHQINSRQTILIIACCVGFVLMVLLFLAFLKFYFHLMLLAGCIKYGRGENIYDAFVIYSSQDEDWVRNELVKNLEEGVPPFQLCLHYRDFIPGVAIAANIIHEGFHKSRKVIVVVSQHFIQSRWCIFEYEIAQTWQFLSSRAGIIFIVLQKVEKTLLRQQVELYRLLSRNTYLEWEDSVLGRHIFWRRLRKALLDGKSWNPEGTVGTGCNWQEATSI
modifications: CER5, amino acids 1-22 are signal peptide
number of SCC152 cells in time lapse imaging: decreasing in numbers over time

B2: CER19: Chimeric engulfment receptor: Tim4 binding, Tim4 transmembrane, TLR5 signaling; SEQ ID NO: 95 (protein)
chain: MSKGLLLLWLVTELWWLYLTPAASEDTIIGFLGQPVTLPCHYLSWSQSRNSMCWGKGSCPNSKCNAELLRTDGTRIISRKSTKYTLLGKVQFGEVSLTISNTNRGDSGVYCCRIEVPGWFNDVKKNVRLELRRATTTKKPTTTTRPTTTPYVTTTTPELLPTTVMTTSVLPTTTPPQTLATTAFSTAVTTCPSTTPGSFSQETTKGSAFTTESETLPASNHSQRSMMTISTDIAVLRPTGSNPGILPSTSQLTTQKTTLTTSESLQKTTKSHQINSRQTILIIACCVGFVLMVLLFLAFLTKFRGFCFICYKTAQRLVFKDHPQGTEPDMYKYDAYLCFSSKDFTWVQNALLKHLDTQYSDQNRFNLCFEERDFVPGENRIANIQDAIWNSRKIVCLVSRHFLRDGWCLEAFSYAQGRCLSDLNSALIMVVVGSLSQYQLMKHQSIRGFVQKQQYLRWPEDFQDVGWFLHKLSQQILKKEKEKKKDNNIPLQTVATIS
modifications: CER19, amino acids 1-22 are signal peptide
number of SCC152 cells in time lapse imaging: decreasing in numbers over time

B3: CER21: Chimeric engulfment receptor: Tim4 binding, Tim4 transmembrane, TLR8 signaling; SEQ ID NO: 96 (protein)
chain: MSKGLLLLWLVTELWWLYLTPAASEDTIIGFLGQPVTLPCHYLSWSQSRNSMCWGKGSCPNSKCNAELLRTDGTRIISRKSTKYTLLGKVQFGEVSLTISNTNRGDSGVYCCRIEVPGWFNDVKKNVRLELRRATTTKKPTTTTRPTTTPYVTTTTPELLPTTVMTTSVLPTTTPPQTLATTAFSTAVTTCPSTTPGSFSQETTKGSAFTTESETLPASNHSQRSMMTISTDIAVLRPTGSNPGILPSTSQLTTQKTTLTTSESLQKTTKSHQINSRQTILIIACCVGFVLMVLLFLAFLHHLFYWDVWFIYNVCLAKVKGYRSLSTSQTFYDAYISYDTKDASVTDWVINELRYHLEESRDKNVLLCLEERDWDPGLAIIDNLMQSINQSKKTVFVLTKKYAKSWNFKTAFYLALQRLMDENMDVIIFILLEPVLQHSQYLRLRQRICKSSILQWPDNPKAEGLFWQTLRNVVLTENDSRYNNMYVDSIKQY
modifications: CER21, amino acids 1-22 are signal peptide
number of SCC152 cells in time lapse imaging: decreasing in numbers over time

B4: CER17: Chimeric engulfment receptor: Tim4 binding, Tim4 transmembrane, TLR3 signaling; SEQ ID NO: 112 (protein)
chain: MSKGLLLLWLVTELWWLYLTPAASEDTIIGFLGQPVTLPCHYLSWSQSRNSMCWGKGSCPNSKCNAELLRTDGTRIISRKSTKYTLLGKVQFGEVSLTISNTNRGDSGVYCCRIEVPGWFNDVKKNVRLELRRATTTKKPTTTTRPTTTPYVTTTTPELLPTTVMTTSVLPTTTPPQTLATTAFSTAVTTCPSTTPGSFSQETTKGSAFTTESETLPASNHSQRSMMTISTDIAVLRPTGSNPGILPSTSQLTTQKTTLTTSESLQKTTKSHQINSRQTILIIACCVGFVLMVLLFLAFLEGWRISFYWNVSVHRVLGFKEIDRQTEQFEYAAYIIHAYKDKDWVWEHFSSMEKEDQSLKFCLEERDFEAGVFELEAIVNSIKRSRKIIFVITHHLLKDPLCKRFKVHHAVQQAIEQNLDSIILVFLEEIPDYKLNHALCLRRGMFKSHCILNWPVQKERIGAFRHKLQVALGSKNSVH
modifications: CER17, amino acids 1-22 are signal peptide
number of SCC152 cells in time lapse imaging: decreasing in numbers over time

B5: CER23: Chimeric engulfment receptor: Tim4 binding, Tim4 transmembrane, TLR9 signaling; SEQ ID NO: 116 (protein)
chain: MSKGLLLLWLVTELWWLYLTPAASEDTIIGFLGQPVTLPCHYLSWSQSRNSMCWGKGSCPNSKCNAELLRTDGTRIISRKSTKYTLLGKVQFGEVSLTISNTNRGDSGVYCCRIEVPGWFNDVKKNVRLELRRATTTKKPTTTTRPTTTPYVTTTTPELLPTTVMTTSVLPTTTPPQTLATTAFSTAVTTCPSTTPGSFSQETTKGSAFTTESETLPASNHSQRSMMTISTDIAVLRPTGSNPGILPSTSQLTTQKTTLTTSESLQKTTKSHQINSRQTILIIACCVGFVLMVLLFLAFLGWDLWYCFHLCLAWLPWRGRQSGRDEDALPYDAFVVFDKTQSAVADWVYNELRGQLEECRGRWALRLCLEERDWLPGKTLFENLWASVYGSRKTLFVLAHTDRVSGLLRASFLLAQQRLLEDRKDVVVLVILSPDGRRSRYVRLRQRLCRQSVLLWPHQPSGQRSFWAQLGMALTRDNHHFYNRNFCQGPTAE
modifications: CER23, amino acids 1-22 are signal peptide
number of SCC152 cells in time lapse imaging: decreasing in numbers over time

B6: CER26: Chimeric engulfment receptor: Tim4 binding, Tim4 transmembrane, TLR1 signaling; SEQ ID NO: 118 (protein)
chain: MSKGLLLLWLVTELWWLYLTPAASEDTIIGFLGQPVTLPCHYLSWSQSRNSMCWGKGSCPNSKCNAELLRTDGTRIISRKSTKYTLLGKVQFGEVSLTISNTNRGDSGVYCCRIEVPGWFNDVKKNVRLELRRATTTKKPTTTTRPTTTPYVTTTTPELLPTTVMTTSVLPTTTPPQTLATTAFSTAVTTCPSTTPGSFSQETTKGSAFTTESETLPASNHSQRSMMTISTDIAVLRPTGSNPGILPSTSQLTTQKTTLTTSESLQKTTKSHQINSRQTILIIACCVGFVLMVLLFLAFLSYLDLPWYLRMVCQWTQTRRRARNIPLEELQRNLQFHAFISYSGHDSFWVKNELLPNLEKEGMQICLHERNFVPGKSIVENIITCIEKSYKSIFVLSPNFVQSEWCHYELYFAHHNLFHEGSNSLILILLEPIPQYSIPSSYHKLKSLMARRTYLEWPKEKSKRGLFWANLRAAINIKLTEQAKK
modifications: CER26, amino acids 1-22 are signal peptide
number of SCC152 cells in time lapse imaging: decreasing in numbers over time
